From patent US9364556B2, “Drug conjugate comprising drug linked to human c-Met antibody, and use therefor” (Korea Research Institute of Bioscience and Biotechnology, priority 2011, dated 2016)

Target: T1, C-Met (Homo sapiens, UniProt P08581)
T1 construct: A549 cells, known to readily express the c-Met receptor; endogenous in cells; host or cells: A549 (endogenous); Cos-7 cells overexpressing c-Met
Test: FACS analysis of specific binding to c-Met
Details: A549 cells and Cos-7 cells that overexpressed c-Met, antibody 1:100, 4° C., 1 hour, FIG. 11
Method: Whether the human modified B7 antibody according to the present invention easily binds specifically to c-Met was examined by FACS analysis. Each of A549 cells, known to readily express the c-Met receptor, and Cos-7 cells that overexpressed c-Met, was prepared, washed twice with PBS, detached by treatment with trypsin, washed again with PBS, and then suspended in PBS (PBA buffer) containing 1% BSA protein. Then, the cells were treated with the purified modified B7 antibody of Example 2 at 1:100 at 4° C. for 1 hour, after which the cells were washed with PBA buffer and precipitated by centrifugation at 8000 rpm for 1 minute. The washing and precipitation process was repeated three times. Then, the modified B7 antibody was treated for 20 minutes with a 1:100 dilution of secondary antibody (Invitrogen, Alexa Fluor 488 goat anti-human IgG, #A11013) that detects human antibody. The cells were washed in the same manner as described above and analyzed by FACS analyzer (BD Cantoll Flow Cytometer), and the results of the analysis are shown in FIG. 11.

T1 sequence (P08581 25-1390): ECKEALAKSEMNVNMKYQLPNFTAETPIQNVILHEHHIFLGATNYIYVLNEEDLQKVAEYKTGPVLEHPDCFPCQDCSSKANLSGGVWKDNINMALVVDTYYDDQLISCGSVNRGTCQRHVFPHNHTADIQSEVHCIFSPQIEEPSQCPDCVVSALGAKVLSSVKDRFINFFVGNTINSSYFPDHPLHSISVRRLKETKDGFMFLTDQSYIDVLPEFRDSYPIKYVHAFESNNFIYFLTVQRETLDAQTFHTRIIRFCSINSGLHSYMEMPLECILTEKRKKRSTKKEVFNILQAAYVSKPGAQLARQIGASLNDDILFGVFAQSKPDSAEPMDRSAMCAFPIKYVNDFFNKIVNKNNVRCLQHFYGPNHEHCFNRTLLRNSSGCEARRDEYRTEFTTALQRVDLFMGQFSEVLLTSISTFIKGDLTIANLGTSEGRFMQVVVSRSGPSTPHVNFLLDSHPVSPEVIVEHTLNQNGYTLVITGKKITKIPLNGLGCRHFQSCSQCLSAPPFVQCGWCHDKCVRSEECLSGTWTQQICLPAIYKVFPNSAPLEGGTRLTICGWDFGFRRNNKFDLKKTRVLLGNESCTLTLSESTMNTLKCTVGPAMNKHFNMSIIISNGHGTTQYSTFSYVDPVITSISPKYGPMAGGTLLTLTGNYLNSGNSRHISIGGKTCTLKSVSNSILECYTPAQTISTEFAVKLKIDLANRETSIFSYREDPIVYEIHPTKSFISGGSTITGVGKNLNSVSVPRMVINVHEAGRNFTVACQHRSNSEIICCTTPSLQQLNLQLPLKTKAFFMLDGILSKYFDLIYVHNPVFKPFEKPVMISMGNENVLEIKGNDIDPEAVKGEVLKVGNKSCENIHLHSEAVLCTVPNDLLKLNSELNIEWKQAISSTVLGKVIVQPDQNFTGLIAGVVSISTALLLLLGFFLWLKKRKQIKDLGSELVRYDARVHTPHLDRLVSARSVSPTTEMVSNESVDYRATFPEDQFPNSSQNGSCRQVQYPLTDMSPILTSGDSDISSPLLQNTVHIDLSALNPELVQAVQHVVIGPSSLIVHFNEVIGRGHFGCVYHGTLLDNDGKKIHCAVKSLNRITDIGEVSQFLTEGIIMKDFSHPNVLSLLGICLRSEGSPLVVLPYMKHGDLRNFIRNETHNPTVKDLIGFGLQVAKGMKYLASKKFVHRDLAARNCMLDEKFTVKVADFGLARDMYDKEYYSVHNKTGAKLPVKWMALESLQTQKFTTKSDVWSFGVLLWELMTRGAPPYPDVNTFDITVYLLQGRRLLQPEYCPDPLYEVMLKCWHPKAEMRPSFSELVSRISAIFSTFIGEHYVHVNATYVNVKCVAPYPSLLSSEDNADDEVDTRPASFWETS

Molecule	specific binding to c-Met by FACS	specific binding to c-Met by FACS (listed as original B7 antibody)
modified B7 antibody: B7 antibody with a cysteine residue added to the heavy-chain variable region (SEQ ID NO: 8); light-chain SEQ ID NO: 11 (antibody, V domains shown, a heavy chain variable region with extra cysteine; a light chain variable region) VH: MGWSYIILFLVATAADVHSQVQLQEWGAGLLKPSETLSLTCAVSGGSLSGHYWSWVRLPPGKGLEWIGEISHSGNTNYNSSLKSRASISIDTSKNEYSLNLKSVTAVDTAVYYCARFYGDYPSSYGMDVWGQGTTVTVSSC VL: MGWSYIILFLVATAADVHSQSALTQPASVSGSPGQSITISCTGTISDIGTYDFVSWYQHKPGKAPKLLIFDVNNRPSGVSSRFSGSKSDNTASLSISGFQAEDEADYYCSSYTDNRGLVLFGGGTKLTVLRS	did bind specifically to c-Met	–
B7 antibody: c-Met-specific human whole IgG from B7 phage variable region; heavy-chain variable region SEQ ID NO: 7, light-chain SEQ ID NO: 11 (antibody, V domains shown, a heavy chain variable region; a light chain variable region) VH: MGWSYIILFLVATAADVHSQVQLQEWGAGLLKPSETLSLTCAVSGGSLSGHYWSWVRLPPGKGLEWIGEISHSGNTNYNSSLKSRASISIDTSKNEYSLNLKSVTAVDTAVYYCARFYGDYPSSYGMDVWGQGTTVTVSS VL: MGWSYIILFLVATAADVHSQSALTQPASVSGSPGQSITISCTGTISDIGTYDFVSWYQHKPGKAPKLLIFDVNNRPSGVSSRFSGSKSDNTASLSISGFQAEDEADYYCSSYTDNRGLVLFGGGTKLTVLRS	bind specifically to c-Met	specifically recognizes c-Met
